Data published in publication PMC6018948.

Experiments:
[1] = biological target: T1, ARR1 (UniProt Q940D0 1-690); experiment: competition
T1 sequence: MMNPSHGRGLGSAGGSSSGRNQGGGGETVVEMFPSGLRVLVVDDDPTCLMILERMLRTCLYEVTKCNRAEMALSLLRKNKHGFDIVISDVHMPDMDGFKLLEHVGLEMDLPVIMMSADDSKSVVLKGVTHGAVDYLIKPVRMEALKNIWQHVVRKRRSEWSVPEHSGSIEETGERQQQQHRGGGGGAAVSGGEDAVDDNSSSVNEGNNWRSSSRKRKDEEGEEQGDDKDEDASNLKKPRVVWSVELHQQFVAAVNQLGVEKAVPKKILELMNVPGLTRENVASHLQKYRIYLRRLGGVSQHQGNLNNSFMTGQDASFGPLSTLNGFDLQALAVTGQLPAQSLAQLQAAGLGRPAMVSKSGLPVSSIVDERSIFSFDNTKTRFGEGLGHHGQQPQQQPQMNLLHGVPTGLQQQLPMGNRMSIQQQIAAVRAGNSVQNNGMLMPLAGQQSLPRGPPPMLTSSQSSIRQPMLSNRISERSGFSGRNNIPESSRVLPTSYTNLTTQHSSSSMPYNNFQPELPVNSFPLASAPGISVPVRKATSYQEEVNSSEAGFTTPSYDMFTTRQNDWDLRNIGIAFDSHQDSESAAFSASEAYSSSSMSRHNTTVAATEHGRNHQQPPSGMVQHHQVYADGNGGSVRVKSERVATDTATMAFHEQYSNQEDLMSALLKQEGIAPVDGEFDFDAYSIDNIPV

[2] = biological target: T2, ARR10 (UniProt O49397 1-552); experiment: competition
T2 sequence: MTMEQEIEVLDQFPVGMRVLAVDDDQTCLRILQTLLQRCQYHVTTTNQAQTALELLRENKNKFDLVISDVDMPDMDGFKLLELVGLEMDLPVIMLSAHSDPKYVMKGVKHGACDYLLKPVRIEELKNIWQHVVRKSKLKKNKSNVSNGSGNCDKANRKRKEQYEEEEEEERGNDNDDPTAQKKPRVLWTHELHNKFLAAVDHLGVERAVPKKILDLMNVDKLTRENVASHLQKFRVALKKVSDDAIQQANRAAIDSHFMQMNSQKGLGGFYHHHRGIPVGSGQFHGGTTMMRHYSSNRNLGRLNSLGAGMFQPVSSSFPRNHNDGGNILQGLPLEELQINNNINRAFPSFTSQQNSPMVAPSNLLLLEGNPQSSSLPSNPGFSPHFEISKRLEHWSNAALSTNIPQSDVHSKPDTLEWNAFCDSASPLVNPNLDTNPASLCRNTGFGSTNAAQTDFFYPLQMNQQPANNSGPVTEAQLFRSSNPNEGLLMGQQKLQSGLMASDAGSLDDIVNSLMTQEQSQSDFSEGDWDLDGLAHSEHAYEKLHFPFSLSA

B1: AG mutated competitor (dsDNA)
DNA 1: TTTAAAGCAATGGTTACAATTTTAATACTATCAAATGTCTATTGCTTTTA
DNA 2: TAAAAGCAATAGACATTTGATAGTATTAAAATTGTAACCATTGCTTTAAA
B1: no binding [1]; no binding [2].
